pKd: −log10 of the molar value.

A word on the pKd: it is the negative decadic logarithm of the Kd, by convention in mol/L. Read a high pKd as a low Kd.

In experiment [1] the target is NOXA peptide fused to the C-terminal half of T7 RNAP. In words: luciferase assay. The following applies: parent: est. 1.0; read off a plot.
In experiment [2] the target is fluorescent NOXA peptide (human). In words: FP. The note with it: natural protein.
For experiment [3], the target named is fluorescent BID peptide (human). As to the kind of experiment: FP. The following applies: natural protein.
fluorescent BID peptide (human), sequence (P55957 79-99): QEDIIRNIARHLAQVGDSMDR

human MCL-1 fused to the N-terminal half of T7 RNAP, sequence (Q07820 whole entry, the tested form may be a part): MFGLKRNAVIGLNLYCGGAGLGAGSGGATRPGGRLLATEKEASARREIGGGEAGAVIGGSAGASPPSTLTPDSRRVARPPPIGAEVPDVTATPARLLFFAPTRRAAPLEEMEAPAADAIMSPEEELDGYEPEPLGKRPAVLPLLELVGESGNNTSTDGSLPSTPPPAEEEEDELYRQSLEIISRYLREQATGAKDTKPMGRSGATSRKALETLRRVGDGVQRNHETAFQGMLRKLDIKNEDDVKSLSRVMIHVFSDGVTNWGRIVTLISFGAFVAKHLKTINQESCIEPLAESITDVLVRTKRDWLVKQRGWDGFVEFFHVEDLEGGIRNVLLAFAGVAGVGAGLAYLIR
fluorescent NOXA peptide (human), sequence (Q13794 19-43): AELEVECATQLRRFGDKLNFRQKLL

Take “human MCL-1 fused to the N-terminal half of T7 RNAP n200S; f258V”: in experiment [1], the ratio to parent amounted to 3.8.
Turning to “human MCL-1 fused to the N-terminal half of T7 RNAP”, the pKd in experiment [2] is 8.01; in experiment [3] it was 7.83.
With “human MCL-1 fused to the N-terminal half of T7 RNAP g202N; d263A”, the ratio to parent in experiment [1] was determined as 0.84.
Still for that read-out and setting: to “human MCL-1 fused to the N-terminal half of T7 RNAP v189G” belongs 3.8; to “human MCL-1 fused to the N-terminal half of T7 RNAP a167T; g202S”, 1.1.

For the origin of these results see paper PMC8282340.
